Laboratory results: the supplement of paper PMC9876800

System: peptide library, one residue held at a place counted from the S/T acceptor
Test: relative phosphorylation of the sub-library (ratio to the mean residue at this position); human; higher = residue favoured
Outline: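 Each biotinylated degenerate peptide sub-library fixed one residue at one position around a central Ser/Thr and was incubated with a purified recombinant kinase, a human or orthologue construct, in 384-well plates. The 90 min reactions, under kinase-specific conditions, contained 50 μM peptide and 50 μM ATP spiked with γ-32P-ATP. Phosphorylation was read by phosphorimaging spots on streptavidin membranes and quantifying them by densitometry. Relative sub-library phosphorylation expresses each value as a ratio to the mean residue at that position.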

Chain of SGK3, construct: aa119-end (Q96BR1 119-496, looked up): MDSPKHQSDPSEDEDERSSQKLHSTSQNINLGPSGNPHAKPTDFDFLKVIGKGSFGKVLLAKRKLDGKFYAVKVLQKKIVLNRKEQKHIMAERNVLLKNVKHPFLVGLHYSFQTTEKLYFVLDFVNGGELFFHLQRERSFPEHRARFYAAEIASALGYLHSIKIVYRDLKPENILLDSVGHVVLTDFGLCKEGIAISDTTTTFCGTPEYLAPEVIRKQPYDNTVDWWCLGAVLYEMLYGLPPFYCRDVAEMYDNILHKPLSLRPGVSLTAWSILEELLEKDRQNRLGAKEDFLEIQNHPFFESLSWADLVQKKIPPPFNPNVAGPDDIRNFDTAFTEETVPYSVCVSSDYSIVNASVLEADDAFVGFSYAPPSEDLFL
Chain of SIK3, construct: aa1-307 (Q9Y2K2 1-307, looked up): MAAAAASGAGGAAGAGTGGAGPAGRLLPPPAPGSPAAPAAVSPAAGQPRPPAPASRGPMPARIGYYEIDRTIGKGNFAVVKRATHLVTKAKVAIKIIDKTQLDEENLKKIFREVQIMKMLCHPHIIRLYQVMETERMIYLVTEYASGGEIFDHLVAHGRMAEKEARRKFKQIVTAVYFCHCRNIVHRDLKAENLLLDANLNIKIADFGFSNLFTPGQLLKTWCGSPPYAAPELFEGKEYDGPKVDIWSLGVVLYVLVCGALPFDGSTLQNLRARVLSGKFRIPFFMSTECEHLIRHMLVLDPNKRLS
Chain of SLK, construct: Full length (Q9H2G2 whole entry, looked up): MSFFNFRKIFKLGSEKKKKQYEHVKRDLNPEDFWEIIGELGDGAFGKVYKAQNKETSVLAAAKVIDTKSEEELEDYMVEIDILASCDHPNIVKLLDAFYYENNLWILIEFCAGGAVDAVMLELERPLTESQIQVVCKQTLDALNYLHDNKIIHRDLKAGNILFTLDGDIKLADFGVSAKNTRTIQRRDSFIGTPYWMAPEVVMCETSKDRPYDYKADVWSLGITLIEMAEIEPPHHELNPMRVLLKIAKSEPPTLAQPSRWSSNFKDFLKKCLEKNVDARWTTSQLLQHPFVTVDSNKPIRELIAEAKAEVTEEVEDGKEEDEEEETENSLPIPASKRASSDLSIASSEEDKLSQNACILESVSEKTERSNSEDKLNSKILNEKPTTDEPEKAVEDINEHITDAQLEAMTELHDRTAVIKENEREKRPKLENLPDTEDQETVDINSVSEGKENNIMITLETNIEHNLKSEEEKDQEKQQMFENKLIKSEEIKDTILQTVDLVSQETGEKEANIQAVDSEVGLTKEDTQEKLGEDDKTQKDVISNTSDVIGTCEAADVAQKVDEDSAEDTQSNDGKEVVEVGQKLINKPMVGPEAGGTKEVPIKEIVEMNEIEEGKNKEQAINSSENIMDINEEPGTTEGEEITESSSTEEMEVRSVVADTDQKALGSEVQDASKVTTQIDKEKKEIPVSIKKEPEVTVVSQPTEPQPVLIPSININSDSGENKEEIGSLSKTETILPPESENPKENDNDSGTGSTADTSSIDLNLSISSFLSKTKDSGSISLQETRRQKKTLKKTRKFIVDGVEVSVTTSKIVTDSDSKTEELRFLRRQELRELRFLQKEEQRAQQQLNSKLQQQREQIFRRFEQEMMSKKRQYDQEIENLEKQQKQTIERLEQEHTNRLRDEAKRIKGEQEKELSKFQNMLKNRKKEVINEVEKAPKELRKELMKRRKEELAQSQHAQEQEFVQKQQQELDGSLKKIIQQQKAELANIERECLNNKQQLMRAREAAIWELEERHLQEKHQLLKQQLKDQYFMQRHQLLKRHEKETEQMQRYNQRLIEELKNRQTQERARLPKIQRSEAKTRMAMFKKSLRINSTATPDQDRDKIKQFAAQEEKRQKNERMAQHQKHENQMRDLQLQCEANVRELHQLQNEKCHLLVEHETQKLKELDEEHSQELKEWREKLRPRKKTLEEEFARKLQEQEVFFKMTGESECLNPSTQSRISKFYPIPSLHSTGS
Chain of RPS6KA6, construct: Full length (Q9UK32 whole entry, looked up): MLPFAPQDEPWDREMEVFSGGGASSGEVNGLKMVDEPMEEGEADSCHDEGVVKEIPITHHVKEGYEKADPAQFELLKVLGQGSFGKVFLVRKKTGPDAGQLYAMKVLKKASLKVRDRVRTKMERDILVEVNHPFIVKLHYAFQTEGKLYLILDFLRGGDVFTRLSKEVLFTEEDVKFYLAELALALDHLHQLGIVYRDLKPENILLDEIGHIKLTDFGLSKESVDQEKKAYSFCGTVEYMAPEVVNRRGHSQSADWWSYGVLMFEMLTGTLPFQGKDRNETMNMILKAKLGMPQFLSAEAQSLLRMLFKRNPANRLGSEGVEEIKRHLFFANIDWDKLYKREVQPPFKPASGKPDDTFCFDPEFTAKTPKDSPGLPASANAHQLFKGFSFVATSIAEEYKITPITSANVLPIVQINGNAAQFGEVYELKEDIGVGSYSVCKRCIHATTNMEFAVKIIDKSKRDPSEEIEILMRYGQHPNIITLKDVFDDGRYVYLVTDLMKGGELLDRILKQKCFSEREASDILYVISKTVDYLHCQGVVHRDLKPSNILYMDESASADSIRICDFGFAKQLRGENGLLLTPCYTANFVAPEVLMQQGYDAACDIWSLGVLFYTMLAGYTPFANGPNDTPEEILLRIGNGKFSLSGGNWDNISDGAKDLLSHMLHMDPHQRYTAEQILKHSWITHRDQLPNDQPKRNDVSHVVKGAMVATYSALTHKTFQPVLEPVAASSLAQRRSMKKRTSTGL

RPS6KA6, construct: Full length (from UniProt Q9UK32)
relative phosphorylation
Conditions | at +1 | at +2 | at +3 | at +4 | at -1 | at -2 | at -3 | at -4 | at -5
A fixed | 0.637 | 0.911 | 0.754 | 0.964 | 0.769 | 0.556 | 0.382 | 0.988 | 0.874
D fixed | 0.481 | 1.09 | 1.24 | 1.3 | 0.622 | 0.544 | 0.444 | 0.785 | 0.613
E fixed | 1.44 | 0.799 | 1.65 | 1.36 | 0.635 | 0.549 | 0.417 | 0.96 | 0.608
F fixed | 1.16 | 0.623 | 0.837 | 0.671 | 0.525 | 0.463 | 0.251 | 0.582 | 0.7
G fixed | 0.574 | 0.967 | 1.23 | 1.37 | 1.1 | 0.812 | 0.527 | 1.13 | 0.932
H fixed | 0.943 | 2.06 | 1.29 | 1.12 | 0.934 | 1.04 | 0.564 | 0.915 | 1
I fixed | 1.49 | 0.54 | 0.708 | 0.609 | 0.262 | 0.364 | 0.205 | 0.479 | 0.433
K fixed | 1.14 | 0.761 | 1.12 | 1.03 | 2.1 | 2.65 | 1.75 | 1.95 | 2.56
L fixed | 1.1 | 0.498 | 0.815 | 0.648 | 0.657 | 1.01 | 0.245 | 0.563 | 0.539
M fixed | 1.08 | 0.594 | 0.717 | 0.82 | 0.863 | 0.522 | 0.314 | 0.8 | 0.545
N fixed | 0.986 | 1.13 | 1.1 | 1.04 | 1.49 | 0.675 | 0.541 | 0.822 | 0.687
P fixed | 0.407 | 0.498 | 0.699 | 1.66 | 2.81 | 0.914 | 1.11 | 1.49 | 0.755
Q fixed | 1.17 | 0.724 | 1.08 | 1.04 | 1 | 0.644 | 0.548 | 0.917 | 0.657
R fixed | 0.949 | 1.31 | 1.01 | 0.906 | 1.53 | 5.3 | 8.88 | 2.69 | 4.15
V fixed | 1.78 | 0.575 | 0.696 | 0.625 | 0.36 | 0.265 | 0.208 | 0.568 | 0.538
W fixed | 0.716 | 1.58 | 0.975 | 1.03 | 0.468 | 0.27 | 0.286 | 0.681 | 0.705
Y fixed | 0.948 | 2.34 | 1.07 | 0.81 | 0.872 | 0.424 | 0.325 | 0.676 | 0.697
pThr fixed | 2.29 | 1.05 | 1.56 | 2.31 | 0.471 | 0.51 | 0.399 | 0.692 | 0.543
pTyr fixed | 1.69 | 1.18 | 1.86 | 1.37 | 0.705 | 0.517 | 0.442 | 0.645 | 0.647

SGK3, construct: aa119-end (from UniProt Q96BR1)
relative phosphorylation
Conditions | at +1 | at +2 | at +3 | at +4 | at -1 | at -2 | at -3 | at -4 | at -5
A fixed | 0.678 | 1.24 | 1.05 | 1.13 | 1.04 | 1.27 | 0.733 | 1.07 | 1.07
D fixed | 0.294 | 0.423 | 0.901 | 0.91 | 0.498 | 0.2 | 0.186 | 0.53 | 0.497
E fixed | 0.369 | 0.236 | 1.05 | 0.892 | 0.462 | 0.194 | 0.21 | 0.661 | 0.509
F fixed | 2.98 | 0.836 | 1.09 | 0.843 | 0.672 | 0.609 | 0.352 | 0.749 | 0.836
G fixed | 0.575 | 0.701 | 1.21 | 1.24 | 1.77 | 0.992 | 0.663 | 1.23 | 1.18
H fixed | 0.707 | 1.32 | 1.05 | 1.13 | 1.1 | 1.2 | 1.74 | 1.05 | 1.05
I fixed | 1.71 | 1.18 | 0.918 | 0.896 | 0.455 | 0.33 | 0.305 | 0.778 | 0.641
K fixed | 0.807 | 0.987 | 0.995 | 1.08 | 1.71 | 3.22 | 2.08 | 1.73 | 1.94
L fixed | 1.29 | 1.59 | 1.06 | 0.823 | 0.799 | 0.412 | 0.307 | 0.809 | 0.72
M fixed | 1.88 | 1.14 | 1.04 | 0.92 | 1.02 | 0.394 | 0.349 | 0.875 | 0.708
N fixed | 0.635 | 1.02 | 0.927 | 0.904 | 1.08 | 0.7 | 0.454 | 0.753 | 0.773
P fixed | 0.361 | 0.56 | 0.835 | 1.39 | 1.06 | 0.558 | 0.688 | 1.09 | 0.991
Q fixed | 0.812 | 0.625 | 0.996 | 0.983 | 0.804 | 0.676 | 0.613 | 0.988 | 0.752
R fixed | 0.935 | 2.32 | 1.03 | 0.99 | 2.23 | 4.89 | 6.97 | 2.32 | 2.79
V fixed | 1.5 | 1.05 | 1.04 | 0.894 | 0.614 | 0.417 | 0.404 | 0.953 | 0.955
W fixed | 0.596 | 0.761 | 0.849 | 1.08 | 0.633 | 0.437 | 0.409 | 0.672 | 0.753
Y fixed | 0.857 | 1.01 | 0.955 | 0.903 | 1.07 | 0.497 | 0.545 | 0.731 | 0.831
pThr fixed | 0.681 | 0.529 | 0.661 | 0.81 | 0.359 | 0.512 | 0.367 | 0.743 | 0.567
pTyr fixed | 0.778 | 0.681 | 0.97 | 0.875 | 0.801 | 0.44 | 0.552 | 0.76 | 0.791

SIK3, construct: aa1-307 (from UniProt Q9Y2K2)
relative phosphorylation
Conditions | at +1 | at +2 | at +3 | at +4 | at -1 | at -2 | at -3 | at -4 | at -5
A fixed | 0.723 | 1.19 | 0.654 | 0.581 | 1.02 | 1.77 | 0.786 | 1.12 | 1.32
D fixed | 0.537 | 0.686 | 2.07 | 0.508 | 0.631 | 0.339 | 0.328 | 0.773 | 0.8
E fixed | 0.747 | 0.583 | 0.643 | 0.374 | 0.495 | 0.272 | 0.353 | 0.768 | 0.692
F fixed | 0.727 | 0.687 | 0.914 | 0.724 | 0.497 | 1.06 | 0.698 | 0.867 | 1.06
G fixed | 0.646 | 0.775 | 0.505 | 0.546 | 2.72 | 1.28 | 0.684 | 1.36 | 1.16
H fixed | 0.747 | 1.14 | 1.36 | 0.678 | 0.857 | 1.3 | 1.11 | 1.19 | 0.856
I fixed | 1.12 | 0.923 | 0.555 | 2.59 | 0.364 | 0.507 | 0.399 | 0.637 | 0.861
K fixed | 0.88 | 0.578 | 0.728 | 0.56 | 1.77 | 1.17 | 2.13 | 1.21 | 1.02
L fixed | 1.21 | 0.987 | 0.824 | 4.53 | 0.691 | 0.364 | 0.497 | 0.662 | 1.58
M fixed | 2.13 | 1.08 | 0.759 | 1.55 | 0.781 | 0.591 | 0.649 | 0.991 | 1.2
N fixed | 1.29 | 1.4 | 3.64 | 0.597 | 1.25 | 0.65 | 0.57 | 0.895 | 0.733
P fixed | 0.373 | 1.17 | 0.359 | 0.637 | 1.53 | 0.538 | 0.939 | 1.16 | 0.954
Q fixed | 1.84 | 0.988 | 0.853 | 0.481 | 1.29 | 0.526 | 0.704 | 0.8 | 0.725
R fixed | 1.1 | 0.956 | 0.688 | 0.459 | 1.4 | 1.45 | 4.8 | 1.73 | 1.5
V fixed | 1.28 | 0.926 | 0.488 | 1.18 | 0.463 | 0.645 | 0.427 | 0.645 | 0.695
W fixed | 0.795 | 1.97 | 0.851 | 0.581 | 0.486 | 2.92 | 1.26 | 1.21 | 0.973
Y fixed | 0.877 | 0.961 | 1.1 | 0.42 | 0.756 | 1.62 | 0.658 | 0.987 | 0.868
pThr fixed | 0.992 | 0.79 | 0.348 | 0.35 | 0.294 | 0.444 | 0.527 | 0.647 | 0.667
pTyr fixed | 0.487 | 0.297 | 0.335 | 0.324 | 0.589 | 0.442 | 0.522 | 0.627 | 0.782

SLK, construct: Full length (from UniProt Q9H2G2)
relative phosphorylation
Conditions | at +1 | at +2 | at +3 | at +4 | at -1 | at -2 | at -3 | at -4 | at -5
A fixed | 0.368 | 0.647 | 0.652 | 0.778 | 0.576 | 0.458 | 0.681 | 1.05 | 1.07
D fixed | 0.242 | 0.669 | 0.58 | 1.14 | 0.484 | 0.531 | 0.8 | 1.09 | 1.57
E fixed | 0.198 | 0.358 | 0.515 | 0.774 | 0.33 | 0.306 | 0.686 | 1.08 | 1
F fixed | 1.23 | 0.482 | 0.699 | 0.768 | 0.781 | 2.5 | 0.948 | 0.894 | 0.915
G fixed | 0.428 | 0.917 | 1.01 | 1.04 | 0.478 | 0.424 | 0.641 | 1.2 | 1.06
H fixed | 0.835 | 1.38 | 1.13 | 1.15 | 1.16 | 0.848 | 1.14 | 1.04 | 1.2
I fixed | 1.39 | 0.349 | 0.454 | 0.648 | 0.287 | 0.263 | 0.314 | 0.6 | 0.552
K fixed | 1.24 | 2.1 | 2.23 | 1.47 | 3.28 | 1.41 | 2.4 | 1.06 | 1.48
L fixed | 2.29 | 0.478 | 0.632 | 0.8 | 0.881 | 0.357 | 0.386 | 0.706 | 0.617
M fixed | 2.25 | 0.614 | 0.61 | 0.801 | 0.904 | 0.568 | 0.565 | 0.747 | 0.691
N fixed | 0.877 | 1.22 | 1.27 | 1.04 | 1.59 | 0.737 | 1.11 | 0.85 | 1.21
P fixed | 0.399 | 1.22 | 1.89 | 1.47 | 0.756 | 0.613 | 1 | 1.68 | 0.872
Q fixed | 0.818 | 1.04 | 0.918 | 1.22 | 1.27 | 0.604 | 1.01 | 0.918 | 0.744
R fixed | 1.11 | 3.74 | 2.14 | 1.45 | 1.68 | 1.13 | 1.79 | 1.11 | 1.31
V fixed | 0.673 | 0.445 | 0.514 | 0.598 | 0.35 | 0.306 | 0.326 | 0.688 | 0.716
W fixed | 1.49 | 0.745 | 0.911 | 1.04 | 0.781 | 0.862 | 1.95 | 1.36 | 1.12
Y fixed | 1.16 | 0.599 | 0.844 | 0.81 | 1.41 | 5.07 | 1.26 | 0.95 | 0.872
pThr fixed | 0.61 | 1 | 0.916 | 0.839 | 0.431 | 0.525 | 0.878 | 1.28 | 1.27
pTyr fixed | 0.455 | 0.581 | 0.811 | 0.641 | 0.392 | 0.921 | 1.16 | 1.07 | 1.03
